Measured values reported in the RNAGym collection of RNA variant scans (doi:10.1073/pnas.2313332121).

B1: TPR t1 (parent)
chain: GACCAAUCUGCCCUCAGAGCUCGAGAACAUCUUCGGAUGCAGAGGAGGCAGGCUUCGGUGGCGCGAUAGCGCCAACGUCCUCAACCUCCAAUGCAUCCCACCACAUGAUGAUGCCUGAAGAGCCUUGGUUUUUUG

Variants of: B1
Assay: polymerase ribozyme fitness, log enrichment relative to wild type (log ratio); higher = more active; in vitro selection for triplet polymerase activity
Outline: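 One round of in vitro selection, in triplicate, was applied to PCR-built, transcribed mutant libraries of each subunit of a heterodimeric triplet polymerase ribozyme. The steps were annealing with a biotinylated primer, partner subunit and triplets, incubation frozen at −7 °C, gel excision of extended constructs, streptavidin-bead capture and RT-PCR. Fitness is the logarithm, base 2, of genotype enrichment over wild-type enrichment from inverse-variance-weighted replicate averages of Illumina-sequenced inputs and outputs, keeping genotypes with ≥10 input reads and ≥1 read per output.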

Variant | polymerase ribozyme fitness (log ratio)
G23A C72U C85U | -6.02
C22G G57A G63A C101A A105U | -6.73
C22U A43G G61A C115A | -5.11
G23U A26C A43U G93A G117C | -7.04
C22G C56A C79A | -4.99
A24G A75U | -2.53
C22U C98U | -4.36
G23C G93A | -6.59
C22U C115G | -4.6
C22U U81A C88G | -5.9
A24G | -1.19
A24U | -5.7
A24C | -6.63
A24G C73U U87C | -1.49
C22U G45U G47C | -7.47
C22U A37G G61U U112C U126G G128A | -4.46
C22U G69U C94G | -1.67
C22G G36A G47C A119U C124G | -3.6
C22G A43U C72G U106A C115A | -1.97
G23A G36A | -5.32
G23A G36C | -6.17
A24G C34A G45U G57U C72U | -5.61
C22G C56U C104A | -2.51
C22G C53U G57C U78C C104A C124G | -1.59

Variant | polymerase ribozyme fitness (log ratio)
A24G U54C C62G | -3.96
A24U A41C G42U C62G A83G C94G C123A G127A | -6.99
G23U | -6.05
G23C | -6.4
G23A | -4.43
A24G G42U G60U A66U C88G A121G | -3.8
C22U C85A | -6.28
C22U C85U | -4.5
A24G C56A G60U A83C U133A | -2.54
A24G C88A C115A | -1.84
C22U A26G A119G G122A C123A | -2.69
A24U C88G | -5.62
A24G C85G | -2.32
A24G C85A | -3.6
C22G C53G C123G | -2.61
C22U A37U C56U | -5.01
C22G C98U | -4.52
A24G U55A U130A | -1.66
A24G C123G | -0.893
C22G A95G C104U | -2.37
G23U G35A A46U G47U G71A G117C U130A | -6.34
C22G G63U C88G | -5.64
C22G G63U | -4.31
G23A C70A | -4.2

Variant | polymerase ribozyme fitness (log ratio)
G23A C70U | -4.99
A24G U112A | -0.197
C22G C62G | -4.53
C22G C62A | -3.99
A24C G48C G69U | -6.7
C22G U106A | -2.37
C22G C31U G51C U81A G93A C123U | -6.15
G23A G63C C76U C101U A111G | -5.22
A24U C79U C114U G128A U131A | -5.77
C22U C31G G63C C82A U87C U112A | -6.33
G23C C64U G120U U133A | -7.42
A24G A50C G63U A118U G122A | -7.26
C22G C28U A37U G48A G110C | -3.85
C22U G71A U78A | -4.62
C22G C56U | -3.32
G23U G48U C62A C64A C86U C99A G117U | -7.32
C22U C34U C73U A83C C124G | -6.07
C22G C49G A84U C86U | -4.89
A24G G61A A84U C85A | -2.08
A24G C86G | -2.33
A24G C86U | -2.07
C22G U54A | -3.16
G23A C94A A111G | -5.95
C22G G45A U54A A95C C114U | -5.19

Variant | polymerase ribozyme fitness (log ratio)
A24G G48U G110A U132A | -3.72
G23U G61U C86A A100U C114U G117U | -7.47
C22G G44C G48U A121U | -3.43
C22G A75U C101U C123A G128C | -6.24
A24C U38G C89U G113U | -6.49
C22U C53A C72U A95G C104A | -4.54
C22G A46G G60A G120A | -4.49
C22U A43U C86U | -5.15
C22G U38A U96C U112A A121U | -3.78
C22G A74C | -3.02
C22G U96G C104G | -5.47
C22G U55G G60U C62G U78C | -5.09
C22G A50G | -3.5
A24G A37G G47A G120C | -1.98
C22G G44C | -4.3
C22G G44U | -4.12
C22U C72U | -3.69
A24G U55G | -1.71
C22U G52C | -4.83
G23A G61A | -4.6
C22G G63C G69C U112A | -5.1
C22G G48C C72U C124U | -2.66
A24G A37U U96C G110U | -3.88
A24C C49U C82U | -5.77

Variant | polymerase ribozyme fitness (log ratio)
C22G C34G C70A C123A | -6.39
A24G C62A A74C G120C | -4.13
A24G U78C C114U C115A | -5.31
G23A A46C C124A | -5.92
C22G C79A C94U G110U A119G U133A | -3.44
C22G C49U G110C | -5.9
A24G G52A C115U | -2.59
A24U G110A | -6.09
A24G G58U | -1.2
C22G G60C A95C A121U | -2.32
C22G G23C A24C C89A C123A | -6.86
C22U G69U C82U C124G U126A | -0.7
C22G A46G C82A A121G G135U | -2.94
C22U C70A | -4.49
A24G G51U | -4.9
A24U C53U | -6.23
A24C C101G U112G | -6.34
C22G C56U C88U A91C | -4.75
A24G C64U | -1.79
C22G C56A C64U C80G C101G U130A | -5.63
G23A C124A | -1.95
C22G G69A C79A | -5.64
C22U C73A | -3.74
C22G C123A | -3.18

Variant | polymerase ribozyme fitness (log ratio)
C22G C123U | -2.66
G23A G69U C115U C123G | -6.34
C22G G93A | -3.42
A24G C98U C101A | -4.13
A24G G48A G93A C97U A111G | -3.16
G23A G69U | -3.97
G23A C28G G69U U78G C79U U112C G128U U133G | -5.41
C22G C40A G69C G113A | -5.15
A24G C62A C89G G113C C115A A118C | -6.92
A24G G36C C49A G71U | -3.84
C22U A24G G47A U54A G57A G61A U81A | -6.51
A24G G57A G77U | -2.15
C22G G113C | -5.28
A24G C28G G48U C64U | -6.05
C22G A37U U87G | -3.6
A24G U59G | -1.69
C22G G60A | -3.33
C22G G60C | -3.23
C22U U59C A100C | -3.95
C22G G42U G44U C89U | -4.83
G23U U33G C49G C53G U59G G71A U78A A84U C94G A100U | -8.02
G23A U38A G58C A121C C124A | -6.22
A24G C86G C99U C114G | -7.76
G23U G69U | -5.44

Variant | polymerase ribozyme fitness (log ratio)
C22G A43U A46G U59A G120C | -4.94
C22G A41U C88G U116G A121G | -4.87
G23U C70G A91C C98U | -7.47
G23A G69A U78C G117C | -6.47
G23U G44C C53G C94A U106G G113A | -7.53
C22G C70A | -4.66
C22G G61U | -2.12
C22G G61C | -3.76
A24G G48A | -1.73
C22G C82A A83U G93C | -4.04
A24U G52U U55C C64A C82A C86G C99A G110A A119G | -7.53
C22U A90G | -4.43
A24U G36U U87C A90G G120U C124A U130G | -6.87
C22U C40G | -4.26
A24G A29G C56A U87G G110A U133A | -3.1
G23A C56G C76U G110A G117A C124G | -7.16
G23A C62A | -7.09
G23C C85G C97A G120C | -7.88
A24G A46U C72U U126G G128C | -4.57
C22G C31A U92C U96A A111U | -5.09
C22U G71C | -4.89
C22U G71A | -3.86
C22G A118G A121U | -1.54
